Bridge positions count the residues as written; N and C are the ends. * marks the point of attachment. tMeBn(DOTA-AET) = Cys-Cys bridge (thioethers) carrying DOTA-AET; tMeBn(DOTA-PP) = Cys-Cys bridge (thioethers) carrying DOTA-PP; Hexanoyl = CCCCCC(=O)*

We go through 2 molecules from US20220315554A1, “COMPOUNDS COMPRISING A […] LIGAND AND USE THEREOF” (priority 2019, published 2022).

Holding throughout (test): radioligand displacement, 10 uM compound
Details in all cases: remark: other sources report otherwise
Background: Loss of bound radioactivity is the signal in a displacement assay; it reports binding, not function.

The target in assay [1] is 5-HT transporter (h) (human (printed (h))), P31645.
The target in assay [2] is T1, 5-HT1A (h) (human (printed (h))), P08908.
T1 chain: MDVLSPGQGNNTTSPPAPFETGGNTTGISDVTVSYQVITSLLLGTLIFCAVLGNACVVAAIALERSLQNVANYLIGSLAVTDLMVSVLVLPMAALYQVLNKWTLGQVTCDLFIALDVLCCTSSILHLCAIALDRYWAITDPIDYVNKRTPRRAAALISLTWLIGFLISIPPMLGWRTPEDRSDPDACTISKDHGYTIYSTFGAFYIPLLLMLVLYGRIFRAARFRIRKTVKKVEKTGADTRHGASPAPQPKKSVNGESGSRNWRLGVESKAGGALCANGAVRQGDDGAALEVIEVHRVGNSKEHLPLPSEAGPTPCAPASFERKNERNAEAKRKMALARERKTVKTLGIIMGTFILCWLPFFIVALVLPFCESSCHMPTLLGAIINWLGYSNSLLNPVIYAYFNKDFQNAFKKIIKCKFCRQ

Assay [3] concerns the target 5-HT1B (h) (human (printed (h))), P28222.
Assay [4] concerns the target 5-HT2A (h) (human (printed (h))), P28223.
For assay [5], the target named is CB2 (h) (human (printed (h))), P34972.
CB2 (h) (human (printed (h))), P34972, sequence (P34972 whole entry): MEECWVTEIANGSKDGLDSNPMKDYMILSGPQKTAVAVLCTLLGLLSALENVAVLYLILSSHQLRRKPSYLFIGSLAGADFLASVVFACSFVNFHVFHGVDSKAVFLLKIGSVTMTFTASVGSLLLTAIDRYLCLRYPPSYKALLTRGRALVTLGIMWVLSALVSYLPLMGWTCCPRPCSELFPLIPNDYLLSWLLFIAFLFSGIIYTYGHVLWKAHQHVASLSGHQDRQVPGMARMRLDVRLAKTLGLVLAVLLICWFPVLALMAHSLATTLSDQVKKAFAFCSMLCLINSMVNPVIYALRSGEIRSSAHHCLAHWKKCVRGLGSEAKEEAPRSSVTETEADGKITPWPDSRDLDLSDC
Assay [6] concerns the target T2, CCK1 (CCKA) (h) (human (printed (h))), P32238.
T2 chain: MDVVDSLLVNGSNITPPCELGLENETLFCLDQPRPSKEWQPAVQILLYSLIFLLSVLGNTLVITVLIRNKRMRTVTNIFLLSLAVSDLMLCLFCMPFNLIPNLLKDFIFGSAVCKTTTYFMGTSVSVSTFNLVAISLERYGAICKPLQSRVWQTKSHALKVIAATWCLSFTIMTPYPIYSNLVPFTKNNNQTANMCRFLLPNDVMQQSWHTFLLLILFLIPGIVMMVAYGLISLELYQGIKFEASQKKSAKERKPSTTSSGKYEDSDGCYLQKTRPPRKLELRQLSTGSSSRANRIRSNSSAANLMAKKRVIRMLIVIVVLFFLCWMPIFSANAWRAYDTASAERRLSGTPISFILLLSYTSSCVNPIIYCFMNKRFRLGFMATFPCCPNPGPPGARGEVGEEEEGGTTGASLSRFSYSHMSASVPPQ

Assay [7] concerns the target T3, D2S (h) (human (printed (h))), P14416.
T3 chain: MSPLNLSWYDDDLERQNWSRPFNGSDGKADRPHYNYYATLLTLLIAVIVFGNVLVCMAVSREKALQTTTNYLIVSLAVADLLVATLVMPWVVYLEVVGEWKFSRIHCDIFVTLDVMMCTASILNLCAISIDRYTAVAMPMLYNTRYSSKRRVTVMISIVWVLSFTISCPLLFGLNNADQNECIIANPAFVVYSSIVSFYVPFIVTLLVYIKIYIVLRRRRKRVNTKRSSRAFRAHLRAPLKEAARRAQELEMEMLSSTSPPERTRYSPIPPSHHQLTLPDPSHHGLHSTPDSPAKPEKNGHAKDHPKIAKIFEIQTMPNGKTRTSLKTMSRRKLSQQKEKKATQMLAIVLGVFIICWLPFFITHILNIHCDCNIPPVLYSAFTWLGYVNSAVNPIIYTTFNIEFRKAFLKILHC

Assay [8] has as its target H2 (h) (human (printed (h))), P25021.
The target in assay [9] is M3 (h) (human (printed (h))), P20309.
Assay [10] has as its target V1a (h) (human (printed (h))), P37288.
For assay [11], the target named is T4, alpha 1A (h) (human (printed (h))), P35348.
T4 chain: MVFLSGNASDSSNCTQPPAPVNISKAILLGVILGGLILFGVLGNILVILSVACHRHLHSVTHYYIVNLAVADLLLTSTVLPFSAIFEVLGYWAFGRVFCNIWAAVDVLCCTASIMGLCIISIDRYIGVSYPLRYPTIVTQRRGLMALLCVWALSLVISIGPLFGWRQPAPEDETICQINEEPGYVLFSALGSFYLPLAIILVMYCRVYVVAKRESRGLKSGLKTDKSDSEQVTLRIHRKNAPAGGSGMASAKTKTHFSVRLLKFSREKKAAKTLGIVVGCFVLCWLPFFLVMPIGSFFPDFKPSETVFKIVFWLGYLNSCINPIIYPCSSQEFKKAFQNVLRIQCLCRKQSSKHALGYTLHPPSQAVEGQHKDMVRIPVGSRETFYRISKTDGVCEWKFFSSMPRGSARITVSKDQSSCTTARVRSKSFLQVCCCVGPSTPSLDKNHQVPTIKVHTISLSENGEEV

Assay [12] concerns the target kappa (h) (KOP) (human (printed (h))), P41145.
Assay [13] has as its target mu (MOP) (h) (human), P35372.
The target in assay [14] is norepinephrine transporter (h) (human (printed (h))), P23975.
norepinephrine transporter (h) (human (printed (h))), P23975, sequence (P23975 whole entry): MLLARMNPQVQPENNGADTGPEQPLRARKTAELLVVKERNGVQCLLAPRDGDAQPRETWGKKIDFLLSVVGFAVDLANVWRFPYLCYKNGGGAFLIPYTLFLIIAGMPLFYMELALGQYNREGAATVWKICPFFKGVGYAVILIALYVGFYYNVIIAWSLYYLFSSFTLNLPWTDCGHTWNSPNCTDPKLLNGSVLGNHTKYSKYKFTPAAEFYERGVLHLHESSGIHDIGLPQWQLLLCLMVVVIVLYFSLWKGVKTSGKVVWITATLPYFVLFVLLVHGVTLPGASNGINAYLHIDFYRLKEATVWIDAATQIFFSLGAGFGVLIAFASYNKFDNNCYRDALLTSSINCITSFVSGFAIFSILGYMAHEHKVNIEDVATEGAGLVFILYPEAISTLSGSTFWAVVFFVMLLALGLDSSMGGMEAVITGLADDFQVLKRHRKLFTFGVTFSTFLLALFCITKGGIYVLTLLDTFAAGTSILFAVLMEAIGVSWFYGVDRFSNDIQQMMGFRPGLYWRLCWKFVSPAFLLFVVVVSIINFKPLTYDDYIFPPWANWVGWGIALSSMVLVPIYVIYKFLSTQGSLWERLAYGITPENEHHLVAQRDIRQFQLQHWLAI

mu (MOP) (h) (human), P35372, sequence (P35372 whole entry): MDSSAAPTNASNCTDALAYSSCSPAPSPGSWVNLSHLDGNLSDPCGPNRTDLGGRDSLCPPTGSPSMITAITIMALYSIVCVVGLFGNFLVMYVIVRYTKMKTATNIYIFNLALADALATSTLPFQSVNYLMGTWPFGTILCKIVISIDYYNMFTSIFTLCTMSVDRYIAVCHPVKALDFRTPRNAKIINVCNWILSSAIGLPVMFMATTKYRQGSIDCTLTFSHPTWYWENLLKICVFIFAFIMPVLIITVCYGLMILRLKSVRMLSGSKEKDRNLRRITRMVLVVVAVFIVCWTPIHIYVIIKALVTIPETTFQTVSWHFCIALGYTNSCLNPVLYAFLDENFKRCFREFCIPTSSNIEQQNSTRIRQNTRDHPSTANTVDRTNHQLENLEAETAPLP
5-HT1B (h) (human (printed (h))), P28222, sequence (P28222 whole entry): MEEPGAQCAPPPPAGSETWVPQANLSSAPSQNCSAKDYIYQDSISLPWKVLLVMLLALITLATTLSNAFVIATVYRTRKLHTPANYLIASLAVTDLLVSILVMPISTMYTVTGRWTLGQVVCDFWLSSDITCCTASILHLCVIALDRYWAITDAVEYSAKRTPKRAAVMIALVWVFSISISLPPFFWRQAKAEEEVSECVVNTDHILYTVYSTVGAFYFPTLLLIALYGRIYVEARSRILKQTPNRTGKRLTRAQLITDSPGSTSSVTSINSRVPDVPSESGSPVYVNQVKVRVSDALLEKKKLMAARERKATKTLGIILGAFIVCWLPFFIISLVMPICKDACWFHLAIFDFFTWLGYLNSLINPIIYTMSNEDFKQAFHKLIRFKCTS
H2 (h) (human (printed (h))), P25021, sequence (P25021 whole entry): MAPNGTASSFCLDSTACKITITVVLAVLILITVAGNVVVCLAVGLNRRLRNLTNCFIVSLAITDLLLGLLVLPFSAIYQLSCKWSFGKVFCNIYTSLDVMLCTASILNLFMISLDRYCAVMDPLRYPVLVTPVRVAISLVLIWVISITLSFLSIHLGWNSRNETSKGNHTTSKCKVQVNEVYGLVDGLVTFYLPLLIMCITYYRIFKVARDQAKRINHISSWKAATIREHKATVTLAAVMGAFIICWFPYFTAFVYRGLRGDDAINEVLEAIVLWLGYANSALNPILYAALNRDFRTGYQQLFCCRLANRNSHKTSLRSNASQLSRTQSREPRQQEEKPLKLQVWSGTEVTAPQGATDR
kappa (h) (KOP) (human (printed (h))), P41145, sequence (P41145 whole entry): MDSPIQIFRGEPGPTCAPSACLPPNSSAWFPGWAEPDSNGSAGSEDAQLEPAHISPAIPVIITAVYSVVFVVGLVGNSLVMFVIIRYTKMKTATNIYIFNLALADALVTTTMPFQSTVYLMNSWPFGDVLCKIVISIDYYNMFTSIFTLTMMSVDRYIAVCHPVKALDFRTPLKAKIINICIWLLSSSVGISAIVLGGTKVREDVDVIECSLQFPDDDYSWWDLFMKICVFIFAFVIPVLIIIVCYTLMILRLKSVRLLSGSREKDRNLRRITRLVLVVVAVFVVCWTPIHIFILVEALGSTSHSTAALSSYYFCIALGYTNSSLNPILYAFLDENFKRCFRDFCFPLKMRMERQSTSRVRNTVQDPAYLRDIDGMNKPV
5-HT2A (h) (human (printed (h))), P28223, sequence (P28223 whole entry): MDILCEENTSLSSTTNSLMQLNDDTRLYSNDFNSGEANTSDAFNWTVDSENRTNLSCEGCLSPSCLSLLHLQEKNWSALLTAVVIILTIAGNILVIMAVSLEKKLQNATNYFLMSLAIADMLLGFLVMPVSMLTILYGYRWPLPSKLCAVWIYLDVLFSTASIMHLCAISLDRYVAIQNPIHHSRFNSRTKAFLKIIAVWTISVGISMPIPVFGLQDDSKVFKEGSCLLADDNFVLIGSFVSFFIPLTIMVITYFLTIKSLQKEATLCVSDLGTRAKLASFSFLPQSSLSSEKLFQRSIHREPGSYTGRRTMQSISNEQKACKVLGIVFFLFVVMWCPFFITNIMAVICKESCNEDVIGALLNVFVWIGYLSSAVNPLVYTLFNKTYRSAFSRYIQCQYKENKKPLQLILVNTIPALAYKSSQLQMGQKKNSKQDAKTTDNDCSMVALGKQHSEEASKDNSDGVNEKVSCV

Consider Hexanoyl-CPPTQFCD-NH2 (linker 1-7 via tMeBn(DOTA-PP)) [Hex-[Cys(tMeBn(DOTA-PP))-Pro-Pro-Thr-Gln-Phe-Cys]-Asp-NH2 (3BP-3407)], for which the % Inhibition of Specific Binding is -3% in [1]; -3% in assay [2]; -11% in assay [3]; -2% in assay [4]; 2% in assay [5]; 24% in [6]. For the same molecule, the % Inhibition of Specific Binding in assay [7] is 15%; in assay [8], -5%; in [9], 10%; in assay [10], 16%; in assay [11] it was 2%; in assay [12], 7%. Also, the % Inhibition of Specific Binding in assay [13] was 2%; in assay [14] it was -8%.

Hexanoyl-CPPTQFC-OH (linker 1-7 via tMeBn(DOTA-AET)) [Hex-[Cys(tMeBn(DOTA-AET))-Pro-Pro-Thr-Gln-Phe-Cys]-OH (3BP-3554)]: the % Inhibition of Specific Binding was -8% in assay [1]; -5% in [2]; 8% in assay [3]; 4% in assay [4]; -5% in assay [5]; 16% in [6]. Besides, the % Inhibition of Specific Binding in assay [7] is -7%; in [8], -16%; in [9] it was 1%; in [10] it was 1%; in assay [11] it was -12%; in [12], 10%. The % Inhibition of Specific Binding in assay [13] is -10%; in [14], -5%.
